The results in this text go back to article PMC4188581 (2014).

For this test, the target named is CDK2 (Homo sapiens, UniProt P24941). In words: SPR. A general note: In SPR one partner is held on a chip, and binding of the other changes the refractive index at the surface.

A word on the Kd: it is the equilibrium constant for the complex coming apart. High values mean weaker binding, low ones tighter binding. For LAALS (60 uM ATP) [LAALS peptide], the Kd amounted to 61 µM.
